Results from PMC2912072.

Target: human BKCa (Slo1) RCK1 domain (322IIE...HDP667) carrying the D362A/367A mutations (human)
Assay: SEC

stoichiometry N: > 16
Substance: human BKCa (Slo1) RCK1 domain (322IIE...HDP667) carrying the D362A/367A mutations (domain or fragment)
